Measurements as given in patent US20050226848, “Transcriptional regulation of gene expression by small double-stranded modulatory RNA” (published 2005).

B1: NRSE/RE1 dsDNA (dsDNA)
DNA 1: TTCAGCACCACGGACAGCGCC
DNA 2: GGCGCTGTCCGTGGTGCTGAA
B2: NRSE dsRNA (dsRNA)
RNA 1: UUCAGCACCACGGACAGCGCC
RNA 2: GGCGCUGUCCGUGGUGCUGAA

Molecular target: Bovine serum albumin (Bos taurus, UniProt P02769 P02769:25-607)
Assay: EMSA; BSA control
Procedure: To compare the affinity between NRSE dsDNA and NRSE dsRNA to NRSF/REST protein, an electrophoretic mobility shift assay (EMSA) was performed. NRSF/REST with cMyc-tag was expressed in 293T cells and immunoprecipitated with anti-cMyc antiboby. After purification, the protein was incubated with either NRSE dsDNAs or dsRNAs. A range of NRSF/REST protein concentrations was tested; the highest one tested produced a shift in dsDNA migration, whereas a 16-fold lower concentration of NRSF/REST protein was enough to produce a shift in dsRNA (FIG. 6C). […] Binding of NRSF/REST to the sequence of the MCS control dsRNAs or dsDNAs was not observed. […] This highly specific binding between NRSE dsRNA and NRSF/REST protein may contribute to a functional switch of the NRSF/REST machinery from transcriptional repressor to activator.

Chain of Bovine serum albumin (P02769 25-607, one chain of several): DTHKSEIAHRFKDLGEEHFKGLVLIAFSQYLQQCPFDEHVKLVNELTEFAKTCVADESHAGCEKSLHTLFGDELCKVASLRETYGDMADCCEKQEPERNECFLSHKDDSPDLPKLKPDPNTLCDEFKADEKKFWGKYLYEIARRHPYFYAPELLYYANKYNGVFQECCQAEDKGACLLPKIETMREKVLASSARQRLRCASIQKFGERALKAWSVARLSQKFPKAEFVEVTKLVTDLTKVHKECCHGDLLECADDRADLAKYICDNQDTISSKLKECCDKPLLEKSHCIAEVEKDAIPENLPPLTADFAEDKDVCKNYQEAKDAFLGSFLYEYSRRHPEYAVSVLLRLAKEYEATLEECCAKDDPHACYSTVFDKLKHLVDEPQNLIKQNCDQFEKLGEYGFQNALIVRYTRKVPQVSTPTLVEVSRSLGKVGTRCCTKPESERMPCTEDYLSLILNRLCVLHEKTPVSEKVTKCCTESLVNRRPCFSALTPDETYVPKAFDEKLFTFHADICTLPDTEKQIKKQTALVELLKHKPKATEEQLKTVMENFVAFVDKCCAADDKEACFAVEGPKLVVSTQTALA

Row | Binder | binding result
1 | B1 | no binding
2 | B2 | no binding
